Test results: publication PMC6294567, “The C-terminal D/E-rich domain of MBD3 is a putative Z-DNA mimic that competes for Zα DNA-binding activity” (Nucleic Acids Research, 2018)
“And” between values parts separate entries of the source, which are not always exact repeats. Equal values may be shown once. Each block holds one molecule with its values, some of them ahead of it.

Tests used:
[1] = system: replication protein A (RPA); conditions: cited from earlier work
Description: This is the first report to identify a particular protein sequence with D/E repeats capable of competition with Z-DNA for binding to Zα, while the potential of acidic residues for DNA mimicry, referring to B-DNA or ssDNA, have been observed previously.

[2] = target: D/E-rich peptide of MBD3, unlabelled (full-length D/E-rich peptide) (human); assay: SEC-MALS; Zα and D/E-rich peptide, equimolar (1, 16, 29 h) or 4:1 (1 h on ice); ENrich SEC 70 column; 20 mM HEPES-NaOH pH 7.5, 50 mM NaCl, 1 mM TCEP, 0.02% NaN3
d(CG)6 duplex = assay: Circular dichroism of d(CG)6 DNA conformation
Procedure: CD spectra were measured at 24°C on a J-815 Spectrometer (JASCO) using a 1 mm path length quartz cell. Prepare 7.5 μM DNA duplex in a buffer consisting of 5 mM HEPES–NaOH pH 7.5, 25 mM NaCl and 1 mM DTT, and in the absence or presence of indicated concentration of proteins. Spectra were recorded between 235 and 305 nm wavelength with a data pitch of 1 nm, bandwidth of 1 nm and with two accumulations at a scanning speed of 10 nm/min.
Figure 6. Zα can compete with the MBD domain for binding to d(CG)6, but not vice versa. (A) CD spectra of the d(CG)6 duplex in the presence of Zα. CD spectra of (B) the d(CG)6 and (C) the d(C^mG)6 duplex, respectively, in the presence of the MBD domain. (D) Monitoring of the change in CD spectra with the addition of increased amounts of Zα to the pre-incubated mixture of the MBD domain and d(CG)6. (E) Monitoring of the change in CD spectra with the addition of increased amount of the MBD domain to the pre-incubated mixture of Zα and d(CG)6. Spectra are expressed in absolute values of ellipticity in millidegrees (mdeg).

Zα [3] = target: T1, Zα (Homo sapiens, UniProt P55265); assay: SEC-MALS of Zα and Zα-D/E-rich peptide complexes; type: binding; conditions: Zα 2.7 mg/ml, expected ~8.8
T1 construct: Zα of human ADAR1; residues 133–209; His6 (pMCSG7, followed by a TEV site) (N, cleaved yes); made in house; host or cells: E. coli BL21(DE3)
T1 sequence (P55265 133-209): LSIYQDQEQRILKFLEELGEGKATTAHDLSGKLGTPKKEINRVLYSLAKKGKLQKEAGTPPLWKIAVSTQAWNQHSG
Procedure: SEC−MALS measurements were conducted using a miniDAWN TREOS detector and an Optilab T-rEX differential refractive index detector (Wyatt Technology Corporation) coupled to an Agilent 1260 Infinity HPLC system. The SEC experiments were performed on an ENrich SEC 70 10 × 300 column (Bio-Rad) equilibrated in a buffer containing 20 mM HEPES–NaOH pH 7.5, 50 mM NaCl, 1 mM TCEP and 0.02% NaN3. The protein Zα alone (2.7 mg/ml) or the mixture of Zα and the D/E-rich peptide at various molar ratios and incubation periods as indicated was loaded onto the column at a flow rate of 0.5 ml/min. Bovine serum albumin (A1900; Sigma) was used for system calibration and molecular weights were calculated using ASTRA 6 software (Wyatt Technology Corporation) with a dn/dc value of 0.185 ml/g.
Figure 3. Analysis of complex formation of Zα and the D/E-rich domain. […] The left y axis represents the normalized UV absorbance at 280 nm, while the right y axis represents the molecular weight (Da). The horizontal traces show the calculated molecular weight. […] TEXT PRINTED IN THE PICTURE: (C) Zα: Measured MW (kDa): 9.8 ± 0.1; Expected MW (kDa): ~8.8 | (C) 1Zα: 1DE: Measured MW (kDa): 12.7 ± 0.1; Expected MW (kDa): ~11.6 | (C) 2Zα: 1DE: Measured MW (kDa): 20.8 ± 0.3; Expected MW (kDa): ~20.5

Sso7d = target: T2, Sso7d (UniProt P39476 2-64); assay: fluorescence polarization; FP: 20 mM HEPES-NaOH pH 7.5, 50 mM NaCl, 1 mM DTT, 30 ul; temperature not stated; CD buffer not in material; conditions: unlabelled version also purchased; blunt; self-complementary duplex, annealed from 85°C
T2 sequence: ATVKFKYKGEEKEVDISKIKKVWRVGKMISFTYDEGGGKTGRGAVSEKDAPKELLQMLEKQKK

[4] = target: T3, Zα (Z-DNA binding domain of ADAR1) (Homo sapiens, UniProt P55265 133-209); assay: as above; conditions: protein: recombinant; tags: His10 (pET16b) or tag-free after TEV (pMCSG7); chain copies: 2; unlabelled version also purchased; blunt; self-complementary duplex, annealed from 85°C
T3 sequence: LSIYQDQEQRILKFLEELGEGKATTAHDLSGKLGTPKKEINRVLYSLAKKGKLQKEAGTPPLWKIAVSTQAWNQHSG

[5] = target: MBD3 MBD domain (MBD3MBD) (Homo sapiens, UniProt O95983 1-72); assay: fluorescence polarization; high affinity similar to Zα; Kd value not in material; FP: 20 mM HEPES-NaOH pH 7.5, 50 mM NaCl, 1 mM DTT, 30 ul; temperature not stated; CD buffer not in material; conditions: protein: recombinant; tags: His6 removed by TEV; unlabelled version also purchased; blunt; self-complementary duplex, annealed from 85°C
His10-Zα = His10-Zα pull-down from HEK293 lysate with LC-MS/MS; type: binding, human; conditions: HEK293 cell lysate, Ni beads
Procedure: HEK293 cells were collected and the pellet was resuspended in the lysis buffer [(50 mM Tris–HCl pH7.5, 1% NP-40, 150 mM NaCl, 10 mM imidazole, 0.1 mM PMSF, 90 U/ml Benzonaes (Novagen) and EDTA-free protease inhibitor cocktail tablet (Roche)]. Lysate was clarified by centrifugation for 30 min at 16 000 × g at 4°C. The protein concentration was measured by using Bradford assay. 20 mg of HEK293 cell lysate was pre-cleaned by adding 1 ml of Ni sepharose (50% slurry) (GE Healthcare) and rotated at 4°C for 1 h. Add 1 mg of purified His10-Zα protein (buffer only as a negative control) to the pre-cleaned lysate and rotate at 4°C overnight. To capture His10-Zα protein, add 0.2 ml Ni sepharose (50% slurry) and incubate at 4°C for 1 h in a rotation wheel. […] Add trichloroacetic acid to precipitate and concentrate the eluates. The concentrated eluates were resuspended in NuPAGE LDS sample buffer (Invitrogen), run on NuPAGE 12% Bis–Tris gels (Invotrogen) and stained using Instant Blue (Expedeon). […]
To identify Zα-interacting proteins, the entire gel lanes were divided into several horizontal slices and subjected to in-gel trypsin digestion. The digested samples were analyzed by LC–MS/MS using LTQ-Orbitrap XL mass spectrometer (Thermo Fisher Scientific, Bremen, Germany). […]

[6] = Stability of E. coli-expressed protein; type: physicochemical; conditions: recombinant E. coli-expressed protein
Zα [7] = target: T1, Zα; assay: SEC / SDS-PAGE complex formation with Zα; type: binding; conditions: Zα 100 μM : protein 25 μM (4:1), ice 1 h, 20 mM Tris–HCl pH 7.5, 50 mM NaCl, 1 mM TCEP
Procedure: Equimolar amounts (0.1 mM) of Zα and DE-rich peptide were incubated on ice for 1 h in a buffer containing 20 mM HEPES–NaOH pH 7.5, 50 mM NaCl, 1 mM DTT. The mixture was then loaded on a Superdex 30 16/600 column (GE Healthcare) equilibrated in the same buffer. The fractions from the peaks corresponding to Zα alone and the complex of Zα and DE-rich peptide were collected and used for chemical cross-linking.
To analyze complex formation of Zα and other proteins (MBD3, MBD or MBDDE), the mixtures were incubated on ice for 1 h in a buffer containing 20 mM Tris–HCl pH 7.5, 50 mM NaCl, 1 mM TCEP. The mixture was then loaded on a Superdex 75 or Superdex 200 increase 10/300 column (GE Healthcare).

Molecule: EDWAGLDEDED [DSS1, protein whose D/E-rich segment (EDWAGLDEDED) acts as a DNA mimic]
attenuation of the affinity of RPA for ssDNA [1]: acts as a DNA mimic to attenuate the affinity of replication protein A (RPA) for ssDNA

stoichiometry N (Zα per D/E-rich peptide) [2]: 2 and 1
DNA conformation after binding (d(CG)6 duplex; CD 235-305 nm, 24°C, 7.5 μM DNA duplex, 5 mM HEPES–NaOH pH 7.5, 25 mM NaCl, 1 mM DTT): induced the Z-DNA formation
measured MW, Zα alone (Zα [3]): 9.8 ± 0.1 kDa
B1: Zα, tag-free (Z-DNA binding domain of human ADAR1, residues 133-209), P55265 133-209 (domain or fragment)
chain: LSIYQDQEQRILKFLEELGEGKATTAHDLSGKLGTPKKEINRVLYSLAKKGKLQKEAGTPPLWKIAVSTQAWNQHSG
competition for binding to d(CG)6 (Zα added to pre-incubated MBD domain and d(CG)6) (d(CG)6 duplex; CD, increasing Zα): able to compete with the MBD domain for binding to d(CG)6

B2: d(CG)6 (dsDNA)
DNA 1: CGCGCGCGCGCG
DNA 2: CGCGCGCGCGCG
Kd (Sso7d): 262 ± 23 nM
Kd [4]: 40.3 ± 3.2 nM
binding result [5]: binds

B3: MBD3: full-length human MBD3; residue 1–291 (protein)
chain: MERKRWECPALPQGWEREEVPRRSGLSAGHRDVFYYSPSGKKFRSKPQLARYLGGSMDLSTFDFRTGKMLMSKMNKSRQRVRYDSSNQVKGKPDLNTALPVRQTASIFKQPVTKITNHPSNKVKSDPQKAVDQPRQLFWEKKLSGLNAFDIAEELVKTMDLPKGLQGVGPGCTDETLLSAIASALHTSTMPITGQLSAAVEKNPGVWLNTTQPLCKAFMVTDEDIRKQEELVQQVRKRLEEALMADMLAHVEELARDGEAPLDKACAEDDDEEDEEEEEEEPDPDPEMEHV
pull-down by Zα (His10-Zα): could be pulled down by Zα
protein stability (in words) [6]: unstable with a large amount of aggregation and degradation
complex formation with Zα on SEC (Zα [7]): almost no detectable stable complex formation of Zα and MBD3
